# T1: DNP-Pro-Cha-Abu-Cys(Me)-His-Ala-Lys(N-Me-Abz)-NH2
# T1 sequence: PXXCHAK
# B1: human liver-derived metalloprotease transiently expressed in COS-7 cells transfected with pTB1921 (culture supernatant, treated with aminophenyl-mercuric … (protein)
# chain: YLLLGRWRKKHLTFRILNLPSTLPPHTARAALRQAFQDWSNVAPLTFQEVQAGAADIRLSFHGRQSSYCSNTFDGPGRVLAHADIPELGSVHFDEDEFWTEGTYRGVNLRIIAAHEVGHALGLGHSRYSQALMAPVYEGYRPHFKLHPDDVAGIQALYGKKSPVIRDEEEEETELPTVPPVPTEPSPMPDPCSSELDAMMLGPRGKTYAFKGDYVWTVSDSGPGPLFRVSALWEGLPGNLDAAVYSPRTQWIHFFKGDKVWRYINFKMSPGFPKKLNRVEPNLDAALYWPLNQKVFLFKGSGYWQWDELARTDFSSYPKPIKGLFTGVPNQPSAAMSWQDGRVYFFKGKVYWRLNQQLRVEKGYPRNISHNWMHCRPRTIDTTPSGGNTTPSGTGITLDTTLSATETTFEY
# Assays:
# [1] = system: T1, DNP-Pro-Cha-Abu-Cys(Me)-His-Ala-Lys(N-Me-Abz)-NH2
Molecule,"intensity of fluorescence (excitation 365 nm, emission 460 nm) after cleavage of the substrate [1]",casein hydrolyzing activity (PER assay) (casein)
recombinant human liver-derived metalloprotease expressed in Escherichia coli JM109/pNHMB,a fluorescence intensity of 230,–
B1,–,casein hydrolyzing activity which was not found in the mock culture supernatant was detected in the culture supernatant of COS-7 cells transfected with pTB1921
